4 molecules from CN116963747A (UNIV TEXAS, dated 2023) can be followed below.

Sequences and labels used below:
B2: HA-TRAF2 (other, human, UniProt Q12933 1-501, looked up)
chain: MAAASVTPPGSLELLQPGFSKTLLGTKLEAKYLCSACRNVLRRPFQAQCGHRYCSFCLASILSSGPQNCAACVHEGIYEEGISILESSSAFPDNAARREVESLPAVCPSDGCTWKGTLKEYESCHEGRCPLMLTECPACKGLVRLGEKERHLEHECPERSLSCRHCRAPCCGADVKAHHEVCPKFPLTCDGCGKKKIPREKFQDHVKTCGKCRVPCRFHAIGCLETVEGEKQQEHEVQWLREHLAMLLSSVLEAKPLLGDQSHAGSELLQRCESLEKKTATFENIVCVLNREVERVAMTAEACSRQHRLDQDKIEALSSKVQQLERSIGLKDLAMADLEQKVLEMEASTYDGVFIWKISDFARKRQEAVAGRIPAIFSPAFYTSRYGYKMCLRIYLNGDGTGRGTHLSLFFVVMKGPNDALLRWPFNQKVTLMLLDQNNREHVIDAFRPDVTSSSFQRPVNDMNIASGCPLFCPVSKMEAKNSYVRDDAIFIKAIVDLTGL
notes: also called 外源HA-TRAF2; not shown: HA tag

One experiment addresses FLAG-cFLIP (human, UniProt O15519 1-480). Nature of the experiment: co-IP in 293T cells.
For the experiment “HA-TRAF2”, the target named is B2. As to the kind of experiment: co-IP in 293T cells with or without FLAG-A20N (Fig 6j).
A further experiment deals with T1, LILRB3 QEE509-511AAA突变体 (human, UniProt O75022 24-631).
T1 construct: It is probably hFc-fused like the other LILRB3 constructs; also called B3AAA
As to the kind of experiment: co-IP in 293T cells.

The next experiment addresses 氨基酸505-515缺失的LILRB3 (human, UniProt O75022 24-631). As to the kind of experiment: co-IP in 293T cells.
Experiment [1] deals with T2, LILRB3-hFc (全长LILRB3, C末端hFc标签) (human, UniProt O75022 24-631).
T2 construct: whole, on cells; also called hFc加标签的B3-FL; not shown: human Fc (hFc) fused at the C-terminus in the pFLAG-CMV5.1 vector
Nature of the experiment: co-IP of HA-TRAF2 with hFc-fused LILRBs in 293T cells.

Experiment [2] addresses T2, LILRB3-hFc (全长LILRB3, C末端hFc标签). Nature of the experiment: co-IP in THP-1 cells stably expressing LILRB3-hFc.
The target of experiment [3] is T3, LILRB3 (白细胞免疫球蛋白样受体亚家族B成员3), full length (human, UniProt O75022 24-631).
T3 construct: whole, on cells; also called B3-FL; 全长LILRB3
As to the kind of experiment: co-IP from primary M5 AML cells with human anti-LILRB3 antibody.

Experiment [4] has as its target T2, LILRB3-hFc (全长LILRB3, C末端hFc标签). Nature of the experiment: co-IP of endogenous TRAF2 with LILRB3-hFc in THP-1 cells, with LPS or PBS.

Chain of FLAG-cFLIP (O15519 whole entry): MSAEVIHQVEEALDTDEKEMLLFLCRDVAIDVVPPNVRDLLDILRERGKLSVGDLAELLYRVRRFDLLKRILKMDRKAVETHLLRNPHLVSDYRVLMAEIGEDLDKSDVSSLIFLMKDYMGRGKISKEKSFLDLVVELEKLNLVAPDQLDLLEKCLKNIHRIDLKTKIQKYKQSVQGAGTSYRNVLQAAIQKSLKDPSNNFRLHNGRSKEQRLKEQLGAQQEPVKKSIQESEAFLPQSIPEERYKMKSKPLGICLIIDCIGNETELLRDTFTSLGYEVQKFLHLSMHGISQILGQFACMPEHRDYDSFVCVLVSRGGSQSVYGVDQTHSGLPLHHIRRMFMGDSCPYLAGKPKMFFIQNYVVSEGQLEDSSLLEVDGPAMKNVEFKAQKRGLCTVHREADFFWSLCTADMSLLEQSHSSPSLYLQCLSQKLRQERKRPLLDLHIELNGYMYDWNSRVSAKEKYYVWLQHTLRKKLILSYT

B1: B3ICDhFc (LILRB3胞内结构域, C末端与hFc融合) (Fc fusion, human, UniProt O75022 465-631, looked up)
chain: RRQRHSKHRTSDQRKTDFQRPAGAAETEPKDRGLLRRSSPAADVQEENLYAAVKDTQSEDRVELDSQSPHDEDPQAVTYAPVKHSSPRREMASPPSSLSGEFLDTKDRQVEEDRQMDTEAAASEASQDVTYAQLHSLTLRRKATEPPPSQEGEPPAEPSIYATLAIH
notes: domain: 胞内结构域; Purified for the in vitro pull-down with GST-TRAF2; not shown: human Fc (hFc) fused at the C-terminus
For the molecule B1, the binding result with FLAG-cFLIP is reported as “no binding”; in the experiment with HA-TRAF2, “binds”.
With B2, the results for the binding result (with LILRB3 QEE509-511AAA突变体; with 氨基酸505-515缺失的LILRB3; in experiment [1]) were “no binding”, “no binding” and “binds”, respectively.

B3: SHP-1 (enzyme)
chain: not shown
notes: also called 内源性SHP-1; 外源SHP-1
Regarding B3, the binding result in experiment [2] is “binds”.

B4: TRAF2 (other, human, UniProt Q12933 2-501, looked up)
chain: AAASVTPPGSLELLQPGFSKTLLGTKLEAKYLCSACRNVLRRPFQAQCGHRYCSFCLASILSSGPQNCAACVHEGIYEEGISILESSSAFPDNAARREVESLPAVCPSDGCTWKGTLKEYESCHEGRCPLMLTECPACKGLVRLGEKERHLEHECPERSLSCRHCRAPCCGADVKAHHEVCPKFPLTCDGCGKKKIPREKFQDHVKTCGKCRVPCRFHAIGCLETVEGEKQQEHEVQWLREHLAMLLSSVLEAKPLLGDQSHAGSELLQRCESLEKKTATFENIVCVLNREVERVAMTAEACSRQHRLDQDKIEALSSKVQQLERSIGLKDLAMADLEQKVLEMEASTYDGVFIWKISDFARKRQEAVAGRIPAIFSPAFYTSRYGYKMCLRIYLNGDGTGRGTHLSLFFVVMKGPNDALLRWPFNQKVTLMLLDQNNREHVIDAFRPDVTSSSFQRPVNDMNIASGCPLFCPVSKMEAKNSYVRDDAIFIKAIVDLTGL
notes: also called 内源TRAF2
On to B4, for which the binding result in experiment [3] and in experiment [4] was “binds” throughout.
